Test results published in article PMC6798120.

Experiments:
Test in all cases: flow cytometry on cells
[1] = target: MHV-A59 S protein R20A (mouse hepatitis virus A59)
[2] = target: MHV-A59 S protein I22A (mouse hepatitis virus A59)
[3] = target: MHV-A59 S protein Y15A/L160A (mouse hepatitis virus A59)

Substance: soluble receptor mCEACAM1a[1,4]
- reduction of receptor binding against WT [1]: 61%
- reduction of receptor binding against WT [2]: 83%
- reduction of receptor binding against WT [3]: > 65%
